Laboratory results from the supplement of paper PMC9170038.

System: MS2 coat protein
Assay: apparent KD of MS2 coat protein; designed switch direction (-1 OFF switch, 1 ON switch): 1; higher = weaker reporter binding
Procedure, shortened: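 Normalised cluster fluorescence was curve-fitted, and each design's median over clusters is its apparent KD. Before this, SNAP-549-labelled MS2 coat protein was titrated from 0.7 or 1.5 nM, doubling to 3 µM, over RNA switches transcribed on Illumina chips by stalled E. coli RNA polymerase. Titrations had no input, 200 uM small-molecule ligand, or an oligonucleotide input, and steps lasted 0.8–1.5 h (lowest) to 10–20 min (highest).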

[1] = Eterna round: R95, input ligand: FMN 200 uM
[2] = Eterna round: R95, input ligand: microRNA oligo, concentration not stated
[3] = Eterna round: R95, input ligand: none
[4] = input ligand: microRNA oligo, concentration not stated

| Sequence | apparent KD of MS2 coat protein [1] | apparent KD of MS2 coat protein [2] | apparent KD of MS2 coat protein [3] | apparent KD of MS2 coat protein (input ligand: FMN 200 uM) | apparent KD of MS2 coat protein [4] | apparent KD of MS2 coat protein (input ligand: none) |
| --- | --- | --- | --- | --- | --- | --- |
| UUGCAGUCAGGUGAGGAUAUCAUGAGUUUAACAUGAGGAUCACCCAUGUGCUGCCUUGCAGCAUAUGAGAAGGCACCUGGCUGCU [JL-ss2-3.03 Brourd Mod] (puzzle: Same State 2) | 132 nM | 295 nM | 535 nM | – | – | – |
| GUGGUCAGACAUGAGGAUCACCCAUGUGGAAUAAAUAACGUACAGGAUAUUCAAUAUAGGAUAUAGAAGAAGGGUAGAUUGGUG (Eterna round: R96, puzzle: Same State NG 3) | – | – | – | 196 nM | 136 nM | 195 nM |
| GCGAGCGUACUUGCUACAUGAGGAUCACCCAUGUUUCAUGGACAGGAUAUGGUACCGUUUCGGUACCAGAAGGGUUCACAUGUG [JL SSNG3 3.81] (Eterna round: R96, puzzle: Same State NG 3) | – | – | – | 88.7 nM | 68 nM | 92.1 nM |
| GCUCGAUGAGCUGUUUACAUGAGGAUCACCCAUGUAGAUGCGGAGGAUAUCUACGUGCUUUAUGUAGAGAAGGCCGUAUCGAGC [SameState NG3 #81] (Eterna round: R96, puzzle: Same State NG 3) | – | – | – | 14.2 nM | 22.2 nM | 28.4 nM |
| GCGAAAUGAUGAAACAUGAGGAUCACCCAUGUAACGAGAGAUGAGGAUAUCGGAAAGGGAGGAGACGAGAAGGCAUGGUCACGC [AK SSNG3-V2-25.1] (Eterna round: R96, puzzle: Same State NG 3) | – | – | – | 48.4 nM | 43 nM | 58.7 nM |
| GCCACACAUGAGGAUCACCCAUGUAAUUACAUGGGAGGAUAUCAGUGCUCGAAAGAGCACUGAGAAGGCCCGUGGC [SS1 - Omei A v4] (puzzle: Same State 1) | 120 nM | 40.1 nM | 309 nM | – | – | – |
| UUAAUUAUGUAAGGAUAUACAUGAGGAUUUCUCGUAGAAGGUACAUUACAUGAGGAUCACCCAUGUGGGUGUCAGAAGACGCCA [Mat - Same State NG 1 - JL mod - D12] (Eterna round: R96, puzzle: Same State NG 1) | – | – | – | 269 nM | 210 nM | 404 nM |
| UACAUACGCGGAGGAUAUGGGCGAGGCGCAGAGGUCUGCGUCAAAACAUGAGGAUCACCCAUGUCCCAGAAGGCCGCGUAAACU [Enisen] (Eterna round: R96, puzzle: Same State NG 2) | – | – | – | 15.7 nM | 51.3 nM | 73.4 nM |
| UGGUAACAUGAGGAUCACCCAUGUCAAAUGAAUCAAGGAUAUGGGAAAGGAGAAGAGAAACCAGAAGGUGAGGUUG [Altered State 1-15 - Jieux - Same State 1] (puzzle: Same State 1) | 108 nM | 205 nM | 167 nM | – | – | – |
| GGUAGGUUACUACCAAACAUGAGGAUCACCCAUGUUAAUGGGAAGGAUAUGGUACCUAUUUGGUACCAGAAGGUCCAAUUAAUU [JL Fiskers NG3ss - 2 mod 4] (Eterna round: R96, puzzle: Same State NG 3) | – | – | – | 70.4 nM | 520 nM | 493 nM |
| UUAAUUAAUUAAUUAUACAUGAGGAUCACCCAUGUAAGUGAUCAGGAUAUCAGCUCGUUUAGAGCUGAGAAGGGAUACAUGUAA [SSNG3/13-A3] (Eterna round: R96, puzzle: Same State NG 3) | – | – | – | 111 nM | 139 nM | 214 nM |
| GCCGGCUGGUGAGGAUAUGGCACCUUAUUGGUGCCAGAAGGCAUGUCAAUUGACAUGAGGAUCACCCAUGUAUUAUAGUUGGCG [salish99_SSNG1_r04_605] (Eterna round: R96, puzzle: Same State NG 1) | – | – | – | 414 nM | 69.3 nM | 56.1 nM |
| GUGGUCAGACAUGAGGAUCACCCAUGUGGAAUAAAUAACGGUGAGGAUAUCGAAUAUAGGAUAUACGAGAAGGCAUGAUUGGUG (Eterna round: R96, puzzle: Same State NG 3) | – | – | – | 165 nM | 93.3 nM | 124 nM |
| UAAACUUCUUUUAGUGUAAUGCAUGUGAUACAUGAGGAUCACCCAUGUUUUGGUUCGUUUUAUUUUGUUCGUCUUAA [JR_SHM208A_Sub078] (puzzle: Sensor for hsa-mir-208a) | 59.3 nM | 43.9 nM | 81.8 nM | – | – | – |
| CACAUGAGGAUCACCCAUGUCAGACAAAGGAGCAUGACGCUACAGGAUAUGUGAGCGACUAACGAAUAGAAGGGUAGCCAUCAC [Eternabot solution 27] (Eterna round: R96, puzzle: Same State NG 3) | – | – | – | 27.5 nM | 20.8 nM | 29.3 nM |
| UAAACUAGUUAUAGUGUAAUGCAUAUUAUACAUGAGGAUCACCCAUGUGAUGGUUGGUAUGAUUUUGUUCGUCUUAA [JR_SHM208A_Sub079] (puzzle: Sensor for hsa-mir-208a) | 148 nM | 61.9 nM | 232 nM | – | – | – |
| GGUCAGACUCACAUGAGGAUCACCCAUGUACCGGAAACGGCACAGGAUAUCUGUCCGAAAAGGUCAGAGAAGGGUGUACUGACC [Fiskers NG3ss - 53] (Eterna round: R96, puzzle: Same State NG 3) | – | – | – | 277 nM | 22.9 nM | 82 nM |
| GCCGCGUUUCGCGCCUACAUGAGGAUCACCCAUGUUUGUAGGCAGGAUAUCGUCCGCUUUGCGGGCGAGAAGGGCUGUUGUGGC [salish99_SSNG3_R04_021] (Eterna round: R96, puzzle: Same State NG 3) | – | – | – | 47 nM | 43.5 nM | 54.8 nM |
| UGGCUCAGACGAGGAUAUGAUCAUGGCGCUUCGGCGCAUACAUGAGGAUCACCCAUGUAAAGUGAUCAGAAGGUGUCUGAGCCU [SSNG2/7-B3] (Eterna round: R96, puzzle: Same State NG 2) | – | – | – | 11.5 nM | 12.4 nM | 14.4 nM |
| GUACAAAUCAUAGGAUAUGGGCGGGAAUGCCGUCCAGAAGGAUGAACAUGAGGAUCACCCAUGUCCGGCCACAAAUACGCGGCC [Bientela] (Eterna round: R96, puzzle: Same State NG 1) | – | – | – | 72.3 nM | 104 nM | 161 nM |
| AUAGUGUACGCAGGAUAUCGAUGAGGAACAUGAGGAUCACCCAUGUUGUGAGGAUCACCCAUGUAUGAGAAGGGCGACCCAUGU [Same State NG2 S1] (Eterna round: R96, puzzle: Same State NG 2) | – | – | – | 148 nM | 46 nM | 57.7 nM |
| GCGAGCGUACUUGCAACAUGAGGAUCACCCAUGUUAACUGGACAGGAUAUGGUACCGUUUCGGUACCAGAAGGGUUUUUCAUGG [JL SSNG3 3.64] (Eterna round: R96, puzzle: Same State NG 3) | – | – | – | 85.6 nM | 50.6 nM | 74.3 nM |
| GAGGGACAGACCAACAUGAGGAUCACCCAUGUCCUCGCAGGUCAGGAUAUCCCGCCAACAGGCGAGGAGAAGGGACGGUGAACC (Eterna round: R96, puzzle: Same State NG 3) | – | – | – | 610 nM | 672 nM | 713 nM |
